We go through 14 molecules from patent US20080107658A1 (AstraZeneca / MedImmune, published 2008).

Where a chain is given by its changes, count along the chain named.

The labels stand for the following.
B1: 1227H8 human IgG4 (antibody, V domains shown)
VH: QMQLVQSGAEVKKTGSSVKVSCKASGHTFAYHYLHWVRQAPGQGLEWMGGIIPIFGTTNYAQRFQDRVTITADESTSTAYMELSSLRSEDTAVYYCASADYAWESYQPPQINGVWGRGTMVTVSS
VL: QSVLTQPPSVSAAPGQKVTITCSGSTSNIGNNYVSWYQQHPGKAPKLMIYDVSKRPSGVPDRFSGSKSGNSASLDISGLQSEDEADYYCAAWDDSLSEFFFGTGTKLTVL
B2: 1230D8 human IgG4 (antibody, V domains shown)
VH: QMQLVQSGAEVKKTGSSVKVSCKASGYTFPYHYLHWVRQAPGQGLEWMGGIIPIFGTTNYAQRFQDRVTITADESTSTAYMEFSSLRSEDTAVYYCASADYVWESYHPATSLSLWGRGTMVTVSS
VL: B1 VL with T21S, S23P, H40R, G78E, F100L
B3: 1133C11 human IgG4 (antibody, V domains shown)
VH: EVQLVQSGAEVKKPGSSVKVSCKASGGTFSTYGISWVRQAPGQGLEWIGGIIPIFDTGNSAQSFQGRVTITADESTSTAYMEVSSLRSDDTAVYYCASSSRIYDLNPSLTAYYDMDVWGQGTMVTVSS
VL: QAVLTQPSSVSTPPGQKVTISCSGSSSNIGNNYVSWYQQLPGTAPKLLIYDNNKRPSGIPDRFSGSKSGTSATLGITGLQTGDEADYYCGTWDSSLSAWVFGGGTKLTVL
B4: 1175H8 human IgG4 (antibody, V domains shown)
VH: B3 VH with G44R, L105A, N106T, P107T, S108G, A111P
VL: B3 VL with Q80R
B5: G1165D4 human IgG4 (antibody, V domains shown)
VH: B3 VH with E1Q, I48M, V83L, D89E, S98R
VL: QSVLTQPPSVSAAPGQKVTISCSGSSSNIENNYVSWYQQLPGTAPKLLIYDNNKRPSGIPDRFSGSKSGTSATLGITGLQTGDEADYYCGTWDSSLSAWVFGGGTKLTV
B6: 1218H5 human IgG4 (antibody, V domains shown)
VH: B3 VH with E10V, N59S
VL: B3 VL with I29T, P41S
B7: 1211G10 human IgG4 (antibody, V domains shown)
VH: B3 VH with K12R, S25Y, I48V, G58R, L105M, N106V, P107S, S108T, T110I, A111P
VL: B3 VL
B8: 1214D10 human IgG4 (antibody, V domains shown)
VH: B3 VH with V11A, Q43R, T69A, L105A, N106H, P107L, S108N, L109H, T110H, A111G
VL: B3 VL with T81A
B9: 1155H1 human IgG4 (antibody, V domains shown)
VH: B3 VH with L105F, N106H, P107L, S108A, L109N, T110K, A111G
VL: B3 VL with V18A, G75D
B10: 1158A1 human IgG4 (antibody, V domains shown)
VH: B3 VH with D56G, L105H, N106H, P107N, S108H, L109V, T110G, A111G
VL: B3 VL with V34A, S94G
B11: 1160E3 human IgG4 (antibody, V domains shown)
VH: B3 VH with V18A
VL: B5 VL with S2A, P8S, A12T, A13P, S26N, E30G
B12: 1214A1 human IgG4 (antibody, V domains shown)
VH: EVQLVQSGAEVKKPGSSVRVSCKASGGTFSTYGISWVRQAPGQGLEWIGGIIPIFDTGNSAQSFQGRVTITADESTSTAYMEVSSLRSDDTAVYYCASSSRIYDAHLQAYYDMDVWGQGTMVTVSS
VL: B3 VL with S57P, W92R
B13: 1165D4 human IgG4 (antibody, V domains shown)
VH: B3 VH
VL: B3 VL with G30E
B14: 1152H5 human IgG4 (antibody, V domains shown)
VH: B3 VH with E46V, L105M, N106I, P107S, T110Q, A111P
VL: B3 VL with V18A

mouse nerve growth factor, sequence (P01139 122-241): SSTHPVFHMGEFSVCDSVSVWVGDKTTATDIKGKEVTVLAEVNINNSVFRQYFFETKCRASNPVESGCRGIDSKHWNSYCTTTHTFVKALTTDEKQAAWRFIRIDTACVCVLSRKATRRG
rat nerve growth factor (beta-NGF), sequence (P25427 122-241): as the sequence (P01139 122-241) above, with A40G, R50K, S61P, E94D, T117A counted along it

The target of the first experiment is human nerve growth factor (beta-NGF) (human, UniProt P01138 122-241). Nature of the experiment: cell-based or functional assay.
human nerve growth factor (beta-NGF), sequence (P01138 122-241): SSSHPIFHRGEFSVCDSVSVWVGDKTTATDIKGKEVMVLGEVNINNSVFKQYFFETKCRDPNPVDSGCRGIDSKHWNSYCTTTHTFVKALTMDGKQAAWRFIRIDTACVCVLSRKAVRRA
For B1, the “IC50, FLIPR calcium mobilisation” value stood at 0.44 nM and the “IC50, PC12 cell survival” value came out at 0.7 nM.

Take B2: the “IC50, FLIPR calcium mobilisation” value came to 0.31 nM and the “IC50, PC12 cell survival” value was found to be 0.71 nM.

Take B3: the “IC50, FLIPR calcium mobilisation” value was 0.45 nM; the “IC50, PC12 cell survival” value was found to be 0.53 nM; the “IC50, TF-1 cell proliferation” value amounted to 0.1 nM.

Regarding B4, the “IC50, FLIPR calcium mobilisation” value was found to be 0.37 nM and the “IC50, PC12 cell survival” value is 1.1 nM.

For B5, the “IC50, FLIPR calcium mobilisation” value stood at 0.32 nM and the “IC50, PC12 cell survival” value amounted to 0.86 nM.

On to B6, for which the “IC50, FLIPR calcium mobilisation” value worked out at 0.33 nM and the “IC50, PC12 cell survival” value was found to be 0.47 nM.

As for B7, the “IC50, FLIPR calcium mobilisation” value was found to be 0.37 nM and the “IC50, PC12 cell survival” value came to 0.58 nM.

Regarding B8, the “IC50, FLIPR calcium mobilisation” value came to 0.29 nM and the “IC50, PC12 cell survival” value was found to be 0.35 nM.

For the molecule B9, the “IC50, FLIPR calcium mobilisation” value amounted to 0.35 nM and the “IC50, PC12 cell survival” value was 0.59 nM.

Consider B10, for which the “IC50, FLIPR calcium mobilisation” value was determined as 0.34 nM and the “IC50, PC12 cell survival” value was 0.48 nM.

B11: the “IC50, FLIPR calcium mobilisation” value is 0.33 nM and the “IC50, PC12 cell survival” value is 0.4 nM.

As to B12, the “IC50, FLIPR calcium mobilisation” value was 0.26 nM and the “IC50, PC12 cell survival” value turned out to be 0.52 nM.

As to B13, the “IC50, FLIPR calcium mobilisation” value was found to be 0.26 nM and the “IC50, PC12 cell survival” value came to 0.41 nM.

Take B14: the “IC50, FLIPR calcium mobilisation” value stood at 0.22 nM; the “IC50, PC12 cell survival” value was determined as 0.4 nM; the “IC50, TF-1 cell proliferation” value was 0.26 nM.

The next experiment concerns the target mouse nerve growth factor (mouse, UniProt P01139 122-241). Nature of the experiment: cell-based or functional assay.
In the case of B1, the “IC50, FLIPR calcium mobilisation” value amounted to 0.48 nM.

As to B2, the “IC50, FLIPR calcium mobilisation” value was determined as 0.37 nM.

Turning to B3, the “IC50, FLIPR calcium mobilisation” value is 0.28 nM and the “IC50, TF-1 cell proliferation” value was found to be 0.1 nM.

Turning to B4, the “IC50, FLIPR calcium mobilisation” value was 0.16 nM.

Regarding B5, the “IC50, FLIPR calcium mobilisation” value is 0.27 nM.

B6: the “IC50, FLIPR calcium mobilisation” value was found to be 0.15 nM.

On to B7, for which the “IC50, FLIPR calcium mobilisation” value came to 0.15 nM.

For B8, the “IC50, FLIPR calcium mobilisation” value is 0.13 nM.

As for B9, the “IC50, FLIPR calcium mobilisation” value was 0.18 nM.

As for B10, the “IC50, FLIPR calcium mobilisation” value was 0.11 nM.

On to B11, for which the “IC50, FLIPR calcium mobilisation” value turned out to be 0.12 nM.

Take B12: the “IC50, FLIPR calcium mobilisation” value was found to be 0.14 nM.

On to B13, for which the “IC50, FLIPR calcium mobilisation” value was found to be 0.16 nM.

B14: the “IC50, FLIPR calcium mobilisation” value stood at 0.14 nM and the “IC50, TF-1 cell proliferation” value came out at 0.07 nM.

The next experiment has as its target rat nerve growth factor (beta-NGF) (rat, UniProt P25427 122-241). Nature of the experiment: cell-based or functional assay.
As to B1, the “IC50, FLIPR calcium mobilisation” value amounted to 0.43 nM and the “IC50, PC12 cell survival” value was 35 nM.

In the case of B2, the “IC50, FLIPR calcium mobilisation” value came out at 0.29 nM and the “IC50, PC12 cell survival” value was found to be 37 nM.

As to B3, the “IC50, FLIPR calcium mobilisation” value is 0.3 nM; the “IC50, PC12 cell survival” value turned out to be 0.42 nM; the “IC50, TF-1 cell proliferation” value is 0.12 nM.

As to B4, the “IC50, FLIPR calcium mobilisation” value worked out at 0.15 nM.

For the molecule B5, the “IC50, FLIPR calcium mobilisation” value was 0.33 nM and the “IC50, PC12 cell survival” value came out at 2.63 nM.

As to B6, the “IC50, FLIPR calcium mobilisation” value stood at 0.13 nM.

For B7, the “IC50, FLIPR calcium mobilisation” value is 0.16 nM.

Regarding B8, the “IC50, FLIPR calcium mobilisation” value is 0.14 nM.

Take B9: the “IC50, FLIPR calcium mobilisation” value stood at 0.18 nM.

As for B10, the “IC50, FLIPR calcium mobilisation” value was 0.12 nM.

Turning to B11, the “IC50, FLIPR calcium mobilisation” value came to 0.13 nM.

For the molecule B12, the “IC50, FLIPR calcium mobilisation” value is 0.16 nM and the “IC50, PC12 cell survival” value worked out at 0.43 nM.

Take B13: the “IC50, FLIPR calcium mobilisation” value was determined as 0.15 nM and the “IC50, PC12 cell survival” value came to 0.41 nM.

For B14, the “IC50, FLIPR calcium mobilisation” value amounted to 0.21 nM; the “IC50, PC12 cell survival” value is 0.38 nM; the “IC50, TF-1 cell proliferation” value came to 0.08 nM.
